Laboratory results: article PMC6601550

Assays:
[1] = molecular target: human neonatal Fc receptor (FcRn heavy chain FCGRT with B2M) on MDCK-hFcRn cells (human) (UniProt P55899); experiment: flow cytometry on cells
[2] = molecular target: FcRn (neonatal Fc receptor) immobilised in the FcRn binding affinity measurement (UniProt P55899); experiment: BLI

Substance	MFI (cell binding to MDCK-hFcRn cells) [1]	MFI (binding to MDCK-hFcRn cells) [1]	Kd [2]
anti-herpes simplex virus glycoprotein D (gD)-YTE antibody	1150 MFI		
Basiliximab (antibody)		203 MFI	
Emicizumab (bispecific antibody)			1230 nM
Adalimumab (antibody)		183 MFI	1180 nM
Rituximab (antibody)			460 nM
Infliximab (antibody)		128 MFI	
Ocrelizumab (antibody)		101 MFI	
